For the assay, the target named is T1, human APJ receptor (hAPJ) (human, UniProt P35414 1-380).
T1 sequence (looked up): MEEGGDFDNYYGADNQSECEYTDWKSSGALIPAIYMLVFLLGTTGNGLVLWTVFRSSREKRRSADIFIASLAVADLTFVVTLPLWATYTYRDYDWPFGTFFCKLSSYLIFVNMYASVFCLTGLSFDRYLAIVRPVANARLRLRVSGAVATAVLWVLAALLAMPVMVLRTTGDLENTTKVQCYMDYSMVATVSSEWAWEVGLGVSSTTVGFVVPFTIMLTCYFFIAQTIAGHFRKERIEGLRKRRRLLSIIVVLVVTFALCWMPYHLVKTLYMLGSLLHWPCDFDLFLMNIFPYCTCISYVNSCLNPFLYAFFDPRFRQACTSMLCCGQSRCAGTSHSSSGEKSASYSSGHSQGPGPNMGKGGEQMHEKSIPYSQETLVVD
In words: cell-based or functional assay.

Bridges are numbered along the chain shown (N, C = ends). [ ]: non-standard residue; d: D form. The star is where a group is joined. Bip = N[C@@H](Cc1ccc(-c2ccccc2)cc1)C(=O)O; pGlu = O=C1CC[C@@H](C(=O)O)N1; Lauroyl = CCCCCCCCCCCC(=O)*; Nle = CCCC[C@H](N)C(=O)O; Orn = NCCC[C@H](N)C(=O)O; Dab = NCC[C@H](N)C(=O)O; AEEA = NCCOCCOCC(=O)O

B1: Example 41: pE-R-P-R-(4-PhF)-C-H-K-G-P-Nle-C-F-OH (peptide)
peptide: [pGlu]RPR[Bip]CHKGP[Nle]CF-OH
modifications: disulfide 6-12
SMILES: CCCC[C@@H]1NC(=O)[C@@H]2CCCN2C(=O)CNC(=O)[C@H](CCCCN)NC(=O)[C@H](Cc2c[nH]cn2)NC(=O)[C@@H](NC(=O)[C@H](Cc2ccc(-c3ccccc3)cc2)NC(=O)[C@H](CCCNC(=N)N)NC(=O)[C@@H]2CCCN2C(=O)[C@H](CCCNC(=N)N)NC(=O)[C@@H]2CCC(=O)N2)CSSC[C@@H](C(=O)N[C@@H](Cc2ccccc2)C(=O)O)NC1=O
On to B1, for which the “hAPJ Ca2+ Flux EC50” value turned out to be 6.91 nM.

B2: Example 39: pE-R-P-R-L-C-H-K-D-P-Nle-C-F-OH (peptide)
peptide: [pGlu]RPRLCHKDP[Nle]CF-OH
modifications: disulfide 6-12
SMILES: CCCC[C@@H]1NC(=O)[C@@H]2CCCN2C(=O)[C@H](CC(=O)O)NC(=O)[C@H](CCCCN)NC(=O)[C@H](Cc2c[nH]cn2)NC(=O)[C@@H](NC(=O)[C@H](CC(C)C)NC(=O)[C@H](CCCNC(=N)N)NC(=O)[C@@H]2CCCN2C(=O)[C@H](CCCNC(=N)N)NC(=O)[C@@H]2CCC(=O)N2)CSSC[C@@H](C(=O)N[C@@H](Cc2ccccc2)C(=O)O)NC1=O
On to B2, for which the “hAPJ Ca2+ Flux EC50” value was determined as 8.2 nM.

B3: Example 36: pE-R-P-F-L-C-H-K-G-P-Nle-C-F-OH (peptide)
peptide: [pGlu]RPFLCHKGP[Nle]CF-OH
modifications: disulfide 6-12
SMILES: CCCC[C@@H]1NC(=O)[C@@H]2CCCN2C(=O)CNC(=O)[C@H](CCCCN)NC(=O)[C@H](Cc2c[nH]cn2)NC(=O)[C@@H](NC(=O)[C@H](CC(C)C)NC(=O)[C@H](Cc2ccccc2)NC(=O)[C@@H]2CCCN2C(=O)[C@H](CCCNC(=N)N)NC(=O)[C@@H]2CCC(=O)N2)CSSC[C@@H](C(=O)N[C@@H](Cc2ccccc2)C(=O)O)NC1=O
With B3, the “hAPJ Ca2+ Flux EC50” value stood at 7.36 nM.

B4: Example 30: pE-r-P-R-L-C-H-K-G-P-Nle-C-F-OH (peptide)
peptide: [pGlu][dR]PRLCHKGP[Nle]CF-OH
modifications: disulfide 6-12
SMILES: CCCC[C@@H]1NC(=O)[C@@H]2CCCN2C(=O)CNC(=O)[C@H](CCCCN)NC(=O)[C@H](Cc2c[nH]cn2)NC(=O)[C@@H](NC(=O)[C@H](CC(C)C)NC(=O)[C@H](CCCNC(=N)N)NC(=O)[C@@H]2CCCN2C(=O)[C@@H](CCCNC(=N)N)NC(=O)[C@@H]2CCC(=O)N2)CSSC[C@@H](C(=O)N[C@@H](Cc2ccccc2)C(=O)O)NC1=O
For the molecule B4, the “hAPJ Ca2+ Flux EC50” value amounted to 6.05 nM.

B5: Example 35: pE-R-D-R-L-C-H-K-G-P-Nle-C-F-OH (peptide)
peptide: [pGlu]RDRLCHKGP[Nle]CF-OH
modifications: disulfide 6-12
SMILES: CCCC[C@@H]1NC(=O)[C@@H]2CCCN2C(=O)CNC(=O)[C@H](CCCCN)NC(=O)[C@H](Cc2c[nH]cn2)NC(=O)[C@@H](NC(=O)[C@H](CC(C)C)NC(=O)[C@H](CCCNC(=N)N)NC(=O)[C@H](CC(=O)O)NC(=O)[C@H](CCCNC(=N)N)NC(=O)[C@@H]2CCC(=O)N2)CSSC[C@@H](C(=O)N[C@@H](Cc2ccccc2)C(=O)O)NC1=O
With B5, the “hAPJ Ca2+ Flux EC50” value stood at 11.1 nM.

B6: Example 32: pE-E-P-R-L-C-H-K-G-P-Nle-C-F-OH (peptide)
peptide: [pGlu]EPRLCHKGP[Nle]CF-OH
modifications: disulfide 6-12
SMILES: CCCC[C@@H]1NC(=O)[C@@H]2CCCN2C(=O)CNC(=O)[C@H](CCCCN)NC(=O)[C@H](Cc2c[nH]cn2)NC(=O)[C@@H](NC(=O)[C@H](CC(C)C)NC(=O)[C@H](CCCNC(=N)N)NC(=O)[C@@H]2CCCN2C(=O)[C@H](CCC(=O)O)NC(=O)[C@@H]2CCC(=O)N2)CSSC[C@@H](C(=O)N[C@@H](Cc2ccccc2)C(=O)O)NC1=O
As for B6, the “hAPJ Ca2+ Flux EC50” value was 518 nM.

B7: Example 26: pE-R-P-R-L-C-H-K-G-P-Nle-C-K(Lauroyl)-OH (peptide)
peptide: [pGlu]RPRLCHKGP[Nle]CK(Lauroyl)-OH
modifications: disulfide 6-12
SMILES: CCCCCCCCCCCC(=O)NCCCC[C@H](NC(=O)[C@@H]1CSSC[C@H](NC(=O)[C@H](CC(C)C)NC(=O)[C@H](CCCNC(=N)N)NC(=O)[C@@H]2CCCN2C(=O)[C@H](CCCNC(=N)N)NC(=O)[C@@H]2CCC(=O)N2)C(=O)N[C@@H](Cc2c[nH]cn2)C(=O)N[C@@H](CCCCN)C(=O)NCC(=O)N2CCC[C@H]2C(=O)N[C@@H](CCCC)C(=O)N1)C(=O)O
For B7, the “hAPJ Ca2+ Flux EC50” value was found to be 29.8 nM.

B8: Example 37: pE-R-P-R-K-C-H-K-G-P-Nle-C-F-OH (peptide)
peptide: [pGlu]RPRKCHKGP[Nle]CF-OH
modifications: disulfide 6-12
SMILES: CCCC[C@@H]1NC(=O)[C@@H]2CCCN2C(=O)CNC(=O)[C@H](CCCCN)NC(=O)[C@H](Cc2c[nH]cn2)NC(=O)[C@@H](NC(=O)[C@H](CCCCN)NC(=O)[C@H](CCCNC(=N)N)NC(=O)[C@@H]2CCCN2C(=O)[C@H](CCCNC(=N)N)NC(=O)[C@@H]2CCC(=O)N2)CSSC[C@@H](C(=O)N[C@@H](Cc2ccccc2)C(=O)O)NC1=O
Take B8: the “hAPJ Ca2+ Flux EC50” value was 1.4 nM.

B9: Example 31: pE-F-P-R-L-C-H-K-G-P-Nle-C-F-OH (peptide)
peptide: [pGlu]FPRLCHKGP[Nle]CF-OH
modifications: disulfide 6-12
SMILES: CCCC[C@@H]1NC(=O)[C@@H]2CCCN2C(=O)CNC(=O)[C@H](CCCCN)NC(=O)[C@H](Cc2c[nH]cn2)NC(=O)[C@@H](NC(=O)[C@H](CC(C)C)NC(=O)[C@H](CCCNC(=N)N)NC(=O)[C@@H]2CCCN2C(=O)[C@H](Cc2ccccc2)NC(=O)[C@@H]2CCC(=O)N2)CSSC[C@@H](C(=O)N[C@@H](Cc2ccccc2)C(=O)O)NC1=O
Take B9: the “hAPJ Ca2+ Flux EC50” value worked out at 84.1 nM.

As for [pGlu]RPRL[Orn]HFGP[Nle]D-Phenethylamine (lactam 6-12) [Example 3: pE-R-P-R-L-Orn-H-F-G-P-Nle-D-Phenethylamine], the “hAPJ Ca2+ Flux EC50” value is 1010 nM.

B10: Example 34: pE-R-K-R-L-C-H-K-G-P-Nle-C-F-OH (peptide)
peptide: [pGlu]RKRLCHKGP[Nle]CF-OH
modifications: disulfide 6-12
SMILES: CCCC[C@@H]1NC(=O)[C@@H]2CCCN2C(=O)CNC(=O)[C@H](CCCCN)NC(=O)[C@H](Cc2c[nH]cn2)NC(=O)[C@@H](NC(=O)[C@H](CC(C)C)NC(=O)[C@H](CCCNC(=N)N)NC(=O)[C@H](CCCCN)NC(=O)[C@H](CCCNC(=N)N)NC(=O)[C@@H]2CCC(=O)N2)CSSC[C@@H](C(=O)N[C@@H](Cc2ccccc2)C(=O)O)NC1=O
As to B10, the “hAPJ Ca2+ Flux EC50” value worked out at 3.21 nM.

B11: Example 25: Lauroyl-O2Oc-Q-R-P-R-L-C-H-K-G-P-Nle-C-F-OH (peptide)
peptide: Lauroyl-[AEEA]QRPRLCHKGP[Nle]CF-OH
modifications: disulfide 7-13
SMILES: CCCCCCCCCCCC(=O)NCCOCCOCC(=O)N[C@@H](CCC(N)=O)C(=O)N[C@@H](CCCNC(=N)N)C(=O)N1CCC[C@H]1C(=O)N[C@@H](CCCNC(=N)N)C(=O)N[C@@H](CC(C)C)C(=O)N[C@H]1CSSC[C@@H](C(=O)N[C@@H](Cc2ccccc2)C(=O)O)NC(=O)[C@H](CCCC)NC(=O)[C@@H]2CCCN2C(=O)CNC(=O)[C@H](CCCCN)NC(=O)[C@H](Cc2c[nH]cn2)NC1=O
Turning to B11, the “hAPJ Ca2+ Flux EC50” value was 24.5 nM.

On to [pGlu]RPCLCCKGP[Nle]CF-OH (disulfide 6-12, 4-7) [Example 28: pE-R-P-C-L-C-C-K-G-P-Nle-C-F-OH], for which the “hAPJ Ca2+ Flux EC50” value was 5.68 nM.

Turning to [pGlu]RPRL[Dab]HFGP[Nle]D-Phenethylamine (lactam 6-12) [Example 4: pE-R-P-R-L-Dab-H-F-G-P-Nle-D-Phenethylamine], the “hAPJ Ca2+ Flux EC50” value is 747 nM.

B12: Example 38: pE-R-P-R-L-C-H-E-G-P-Nle-C-F-OH (peptide)
peptide: [pGlu]RPRLCHEGP[Nle]CF-OH
modifications: disulfide 6-12
SMILES: CCCC[C@@H]1NC(=O)[C@@H]2CCCN2C(=O)CNC(=O)[C@H](CCC(=O)O)NC(=O)[C@H](Cc2c[nH]cn2)NC(=O)[C@@H](NC(=O)[C@H](CC(C)C)NC(=O)[C@H](CCCNC(=N)N)NC(=O)[C@@H]2CCCN2C(=O)[C@H](CCCNC(=N)N)NC(=O)[C@@H]2CCC(=O)N2)CSSC[C@@H](C(=O)N[C@@H](Cc2ccccc2)C(=O)O)NC1=O
As for B12, the “hAPJ Ca2+ Flux EC50” value is 182 nM.

B13: Example 40: pE-R-P-E-L-C-H-K-G-P-Nle-C-F-OH (peptide)
peptide: [pGlu]RPELCHKGP[Nle]CF-OH
modifications: disulfide 6-12
SMILES: CCCC[C@@H]1NC(=O)[C@@H]2CCCN2C(=O)CNC(=O)[C@H](CCCCN)NC(=O)[C@H](Cc2c[nH]cn2)NC(=O)[C@@H](NC(=O)[C@H](CC(C)C)NC(=O)[C@H](CCC(=O)O)NC(=O)[C@@H]2CCCN2C(=O)[C@H](CCCNC(=N)N)NC(=O)[C@@H]2CCC(=O)N2)CSSC[C@@H](C(=O)N[C@@H](Cc2ccccc2)C(=O)O)NC1=O
Take B13: the “hAPJ Ca2+ Flux EC50” value was 7.99 nM.

B14: Example 33: pE-R-p-R-L-C-H-K-G-P-Nle-C-F-OH (peptide)
peptide: [pGlu]R[dP]RLCHKGP[Nle]CF-OH
modifications: disulfide 6-12
SMILES: CCCC[C@@H]1NC(=O)[C@@H]2CCCN2C(=O)CNC(=O)[C@H](CCCCN)NC(=O)[C@H](Cc2c[nH]cn2)NC(=O)[C@@H](NC(=O)[C@H](CC(C)C)NC(=O)[C@H](CCCNC(=N)N)NC(=O)[C@H]2CCCN2C(=O)[C@H](CCCNC(=N)N)NC(=O)[C@@H]2CCC(=O)N2)CSSC[C@@H](C(=O)N[C@@H](Cc2ccccc2)C(=O)O)NC1=O
Turning to B14, the “hAPJ Ca2+ Flux EC50” value came out at 8.1 nM.

Take [pGlu]RCRLCCKGP[Nle]CF-OH (disulfide 6-12, 3-7) [Example 29: pE-R-C-R-L-C-C-K-G-P-Nle-C-F-OH]: the “hAPJ Ca2+ Flux EC50” value stood at 4.33 nM.

B15: Example 27: pE-R-P-R-L-C-K(Lauroyl)-K-G-P-Nle-C-F-OH (peptide)
peptide: [pGlu]RPRLCK(Lauroyl)KGP[Nle]CF-OH
modifications: disulfide 6-12
SMILES: CCCCCCCCCCCC(=O)NCCCC[C@@H]1NC(=O)[C@@H](NC(=O)[C@H](CC(C)C)NC(=O)[C@H](CCCNC(=N)N)NC(=O)[C@@H]2CCCN2C(=O)[C@H](CCCNC(=N)N)NC(=O)[C@@H]2CCC(=O)N2)CSSC[C@@H](C(=O)N[C@@H](Cc2ccccc2)C(=O)O)NC(=O)[C@H](CCCC)NC(=O)[C@@H]2CCCN2C(=O)CNC(=O)[C@H](CCCCN)NC1=O
Regarding B15, the “hAPJ Ca2+ Flux EC50” value amounted to 65.5 nM.

The record behind these values is patent publication US8673848 (Novartis, dated 2014).
